# Measured values as given in patent US20230348600A1 (INHIBRX, published 2023).
# B1: 1G7 CD28 sdAb formatted with human IgG1 Fc (sdAb-hFc) (Fc fusion)
# chain: EVQLVQSGGALVQAGGSLRLSCVAPRTIGLISLMGWYRQAPGKQRELVATIIASGRTNYAESVKDRFTISRDNAENKVYLQVNSLKPEDTAVYYCRVNAETAPWSRRGFWGQGTQVTVKPPAPELLGGPSVFLFPPKPKDTLMISRTPEVTCVVVDVSHEDPEVKFNWYVDGVEVHNAKTKPREEQYNSTYRVVSVLTVLHQDWLNGKEYKCKVSNKALPAPIEKTISKAKGQPREPQVYTLPPSRDELTKNQVSLTCLVKGFYPSDIAVEWESNGQPENNYKTTPPVLDSDGSFFLYSKLTVDKSRWQQGNVFSCSVMHEALHNHYTQKSLSLSPGK
# notes: also called 1G7 sdAb-IgG1
# B2: cx984 (CD28 monospecific construct) (Fc fusion)
# chain: EVQLVQSGGGLVQTGGSLRLSCAASGRMFSNYAMGWFRQAPGKEREFVAAINYRRDSADYADSVKGRFTISRDNAKNTVYLEMNSLKPEDTAIYYCGFTYAGWASSRRDDYNYWGQGTQVTVKPPAPGGPSVFLFPPKPKDTLMISRTPEVTCVVVDVSHEDPEVKFNWYVDGVEVHNAKTKPREEQYNSTYRVVSVLTVLHQDWLNGKEYKCKVSNKALPAPIEKTISKAKGQPREPQVYTLPPSRDELTKNQVSLTCLVKGFYPSDIAVEWESNGQPENNYKTTPPVLDSDGSFFLYSKLTVDKSRWQQGNVFSCSVMHEALHNHYTQKSLSLSPGK
# notes: Homodimer of two identical chains; also called monospecific, bivalent CD28 sdAb cx984
# B3: 2F11 CD28 sdAb formatted with human IgG1 Fc (sdAb-hFc) (Fc fusion)
# chain: QVQLQQSGGGLVQAGGSLRLSCVASGISFNVVDMDWHRQAPGKERELVAGITRGGATYYADSVKGRFTISRDNAKNSAYLQLANLKPEDTAVYYCNARWPSRYQNYWGQGTQVTVKPPAPELLGGPSVFLFPPKPKDTLMISRTPEVTCVVVDVSHEDPEVKFNWYVDGVEVHNAKTKPREEQYNSTYRVVSVLTVLHQDWLNGKEYKCKVSNKALPAPIEKTISKAKGQPREPQVYTLPPSRDELTKNQVSLTCLVKGFYPSDIAVEWESNGQPENNYKTTPPVLDSDGSFFLYSKLTVDKSRWQQGNVFSCSVMHEALHNHYTQKSLSLSPGK
# notes: Bivalent sdAb-IgG1 homodimer; I treated them as the same clone; also called 2F11 sdAb-IgG1
# B4: 1C9 CD28 sdAb formatted with human IgG1 Fc (sdAb-hFc) (Fc fusion)
# chain: EVQLVQSGGGLVQTGGSLRLSCAASGRMFSNYAMGWFRQAPGKEREFVAAINYRRDSADYADSVKGRFTISRDNAKNTVYLEMNSLKPEDTAIYYCGFTYAGWASSRRDDYNYWGQGTQVTVKPPAPELLGGPSVFLFPPKPKDTLMISRTPEVTCVVVDVSHEDPEVKFNWYVDGVEVHNAKTKPREEQYNSTYRVVSVLTVLHQDWLNGKEYKCKVSNKALPAPIEKTISKAKGQPREPQVYTLPPSRDELTKNQVSLTCLVKGFYPSDIAVEWESNGQPENNYKTTPPVLDSDGSFFLYSKLTVDKSRWQQGNVFSCSVMHEALHNHYTQKSLSLSPGK
# notes: Bivalent sdAb-IgG1 homodimer; also called 1C9-IgG1; 1C9 sdAb-IgG1
# B5: 1C9-xELL (1C9 CD28 sdAb formatted with variant human IgG1 Fc xELL) (Fc fusion)
# chain: B2 chain
# notes: also called 1C9 sdAb-xELL
# B6: cx694 (PDL1xCD28 bispecific construct) (bispecific antibody)
# chain: EVQLLESGGGEVQPGGSLRLSCAASGGIFAIKPISWYRQAPGKQREWVSTTTSSGATNYAESVKGRFTISRDNAKNTLYLQMSSLRAEDTAVYYCNVFEYWGQGTLVTVKPGGSGGGGSEVQLVQSGGGLVQTGGSLRLSCAASGRMFSNYAMGWFRQAPGKEREFVAAINYRRDSADYADSVKGRFTISRDNAKNTVYLEMNSLKPEDTAIYYCGFTYAGWASSRRDDYNYWGQGTQVTVKPPAPGGPSVFLFPPKPKDTLMISRTPEVTCVVVDVSHEDPEVKFNWYVDGVEVHNAKTKPREEQYNSTYRVVSVLTVLHQDWLNGKEYKCKVSNKALPAPIEKTISKAKGQPREPQVYTLPPSRDELTKNQVSLTCLVKGFYPSDIAVEWESNGQPENNYKTTPPVLDSDGSFFLYSKLTVDKSRWQQGNVFSCSVMHEALHNHYTQKSLSLSPGK
# notes: also called PDL1xCD28 bispecific protein
# B7: cx8370 (PDL1xCD28 bispecific construct) (bispecific antibody)
# chain: EVQLLESGGGEVQPGGSLRLSCAASGGIFAIKPISWYRQAPGKQREWVSTTTSSGATNYAESVKGRFTISRDNAKNTLYLQMSSLRAEDTAVYYCNVFEYWGQGTLVTVKPGGSGGSEVQLVQSGGGLVQTGGSLRLSCAASGRMFSNYAMGWFRQAPGKEREFVAAINYRRDSADYADSVKGRFTISRDNAKNTVYLEMNSLKPEDTAIYYCGFTYAGWASSRRDDYNYWGQGTQVTVKPPAPGGPSVFLFPPKPKDTLMISRTPEVTCVVVDVSHEDPEVKFNWYVDGVEVHNAKTKPREEQYNSTYRVVSVLTVLHQDWLNGKEYKCKVSNKALPAPIEKTISKAKGQPREPQVYTLPPSRDELTKNQVSLTCLVKGFYPSDIAVEWESNGQPENNYKTTPPVLDSDGSFFLYSKLTVDKSRWQQGNVFSCSVMHEALHNHYTQKSLSLSPGK
# Columns and labels:
# [1] = target: T1, human CD28 (full-length, cell surface) (human, UniProt P10747 19-220); experiment: flow cytometry, titration of sdAb-hFc on HEK293FS cells transiently transfected with full-length human CD28; Alexa Fluor 647 anti-human IgG
# T1 construct: On HEK293FS cells transiently transfected with full-length human CD28, or endogenous on Jurkat cells and primary human T cells; also called hCD28; cluster of differentiation 28
# Protocol: HEK293FS transiently transfected with full-length human CD28 or cynomolgus CD28 were used as CD28-positive cells. Untransfected HEK293FS cells were used as CD28-negative cells. Cells were seeded in 96-well round-bottom plates at 3×10³ cells/well in FACS buffer. The exemplary generated sdAb-hFcs were titrated onto cells and assay plates were incubated for 30 minutes at 4° C. […] Assay plates were incubated for 30 minutes at 4° C. and then cells were washed two times with FACS buffer and resuspended in FACS buffer for analysis using an Intellicyt iQue®.
# [2] = target: T1, human CD28 (full-length, cell surface); experiment: flow cytometry, titration on Jurkat cells (endogenous CD28)
# [3] = target: T1, human CD28 (full-length, cell surface); experiment: flow cytometry on Jurkat cells and primary T cells enriched from PBMCs (endogenous CD28)
# [4] = target: T1, human CD28 (full-length, cell surface); experiment: flow cytometry, titration on Jurkat cells (5T4-/PDL1-/CD28+)
binder,measurement,setting,value
B1,binding result,[1],binds
B2,binding result,[2],binds
B3,binding result,[1],binds
B4,binding result,[1],binds
B5,binding result,[3],binds
B6,binding result,[4],no binding
B7,binding result,[4],no binding
